From patent publication US20140205612A1

Tests used:
Assay in all cases: cell-based or functional assay
[1] = biological target: JR-FL(E168K) Env on pseudovirus (HIV-1 JR-FL)
[2] = biological target: ADA Env on pseudovirus (HIV-1 ADA)
[3] = biological target: 92RW020 Env on pseudovirus (HIV-1 92RW020)
[4] = biological target: JR-CSF(1309A) Env on pseudovirus (HIV-1 JR-CSF) (UniProt P20871)
[5] = biological target: JR-CSF(Y318A) Env on pseudovirus (HIV-1 JR-CSF) (UniProt P20871)
[6] = biological target: HIV-1 JR-CSF Env on pseudovirus (HIV-1 JR-CSF) (UniProt P20871)

B1: 1503_H05 (PG16) (TCN-119) (antibody, V domains shown)
VH: QEKLVESGGGVVQPGGSLRLSCLASGFTFHKYGMHWVRQAPGKGLEWVALISDDGMRKYHSDSMWGRVTISRDNSKNTLYLQFSSLKVEDTAMFFCAREAGGPIWHDDVKYYDFNDGYYNYHYMDVWGKGTIVTVSS
VL: QSALTQPASVSGSPGQTITISCNGTRSDVGGFDSVSWYQQSPGKAPKVMVFDVSHRPSGISNRFSGSKSGNTASLTISGLHIEDEGDYFCSSLTDRSHRIFGGGTKVTVLG
IC50 (ug/ml), pseudovirus neutralization, TZM-bl assay [1]: 0.002 µg/mL | IC50 (ug/ml), pseudovirus neutralization, TZM-bl assay [2]: 0.003 µg/mL | IC50 (ug/ml), pseudovirus neutralization, TZM-bl assay [3]: 0.02 µg/mL | IC50 (ug/ml), pseudovirus neutralization, TZM-bl assay [4]: > 1 µg/mL | IC50 (ug/ml), pseudovirus neutralization, TZM-bl assay [5]: > 1 µg/mL | IC50 (ug/ml), pseudovirus neutralization, TZM-bl assay [6]: 0.001 µg/mL

B2: 1489_I13 (PG16) (TCN-120) (antibody, V domains shown)
VH: QEQLLESGGGVVQPGGSLRLSCLASGFTFHKYGMHWVRQAPGKGLEWVALISDDGMRKYHSNSMWGRVTISRDNSKNTLYLQFSSLKVEDTAMFFCAREAGGPIWHDDVKYYDFNDGYYNYHYMDVWGKGTTVTVSS
VL: QSALTQPASVSGSPGQTITISCNGTSSDVGGFDSVSWYQQSPGKAPKVMVFDVSHRPSGISNRFSGSKSGNTASLTISGLHIEDEGDYFCSSLTDRSHRIFGGGTKVTVLG
IC50 (ug/ml), pseudovirus neutralization, TZM-bl assay [1]: 0.005 µg/mL | IC50 (ug/ml), pseudovirus neutralization, TZM-bl assay [2]: 0.008 µg/mL | IC50 (ug/ml), pseudovirus neutralization, TZM-bl assay [3]: 0.03 µg/mL | IC50 (ug/ml), pseudovirus neutralization, TZM-bl assay [4]: > 1 µg/mL | IC50 (ug/ml), pseudovirus neutralization, TZM-bl assay [5]: > 1 µg/mL | IC50 (ug/ml), pseudovirus neutralization, TZM-bl assay [6]: 0.002 µg/mL

B3: 1456_A12 (PG16) (TCN-117) (antibody, V domains shown)
VH: HEQLVEAGGGVVQPGGSLRLSCLASGFTFHKYGMHWVRQAPGKGLEWVALISDDGMRKYHSDSMWGRVTISRDNSKNTLYLQFSSLRVEDTAMFFCAREAGGPIWHDDVKYYDFNDGYYNYHYMDVWGKGTKVTVSS
VL: QSALTQPASVSGSPGQTITISCNGTSRDVGGFDSVSWYQQSPGKAPKVMVFDVSHRPSGMSNRFSGSKSGNTASLTISGLHIEDEGDYFCSSLTDRSHRIFGGGTKLTVLG
IC50 (ug/ml), pseudovirus neutralization, TZM-bl assay [1]: 0.003 µg/mL | IC50 (ug/ml), pseudovirus neutralization, TZM-bl assay [2]: 0.005 µg/mL | IC50 (ug/ml), pseudovirus neutralization, TZM-bl assay [3]: 0.05 µg/mL | IC50 (ug/ml), pseudovirus neutralization, TZM-bl assay [4]: > 1 µg/mL | IC50 (ug/ml), pseudovirus neutralization, TZM-bl assay [5]: > 1 µg/mL | IC50 (ug/ml), pseudovirus neutralization, TZM-bl assay [6]: 0.001 µg/mL

B4: 1469_M23 (PG16) (TCN-118) (antibody, V domains shown)
VH: QEKLVESGGGVVQPGGSLRLSCLASGFTFHKYGMHWVRQAPGKGLEWVALISDDGMRKYHSDSMWGRVTISRDNSKNTLYLQFSSLKVEDTAMFFCAREAGGPIWHDDVKYYDFNDGYYNYHYMDVWGKGTTVTVSS
VL: QSALTQPASVSGSPGQTITISCNGTRSDVGGFDSVSWYQQSPGRAPKVMVFDVSHRPSGISNRFSGSKSGNTASLTISGLHIEDEGDYFCSSLTDRSHRIFGGGTKLTVLG
IC50 (ug/ml), pseudovirus neutralization, TZM-bl assay [1]: 0.005 µg/mL | IC50 (ug/ml), pseudovirus neutralization, TZM-bl assay [2]: 0.005 µg/mL | IC50 (ug/ml), pseudovirus neutralization, TZM-bl assay [3]: 0.05 µg/mL | IC50 (ug/ml), pseudovirus neutralization, TZM-bl assay [4]: > 1 µg/mL | IC50 (ug/ml), pseudovirus neutralization, TZM-bl assay [5]: > 1 µg/mL | IC50 (ug/ml), pseudovirus neutralization, TZM-bl assay [6]: 0.002 µg/mL
